Test results: PMC6097701

Key:
[1] = target: HA-tagged human surfeit locus protein 4 (HA-Surf4) (human) (UniProt O15260); assay: co-sedimentation; crude microsomes from Surf4^KO HEK293A cells transfected with HA-Surf4, permeabilised with CEB (digitonin) 30 min on ice; 400 nM GH (conditioned media in KHMC buffer) 1 hr on ice; pelleted at >100,000 x g; bound GH released with … peptide and read by hGH ELISA; controls: microsomes without CEB and microsomes of untransfected Surf4^KO cells
[2] = target: HA-tagged human surfeit locus protein 4 (HA-Surf4) (human) (UniProt O15260); assay: binding to immuno-isolated microsomes on magnetic beads, bound GH read by ELISA; titration; microsomes of HA-Surf4-transfected HEK293A cells held on Protein G-Dynabeads with anti-Surf4 carboxy-terminal antibody, CEB-permeabilised; 0, 100, 200, 300, 400 or 800 nM GH for 1 hr at RT in KHMC buffer; GH eluted with … peptide; estimate of the binding constant from half-maximal …

UniProt O15260, sequence (O15260 whole entry): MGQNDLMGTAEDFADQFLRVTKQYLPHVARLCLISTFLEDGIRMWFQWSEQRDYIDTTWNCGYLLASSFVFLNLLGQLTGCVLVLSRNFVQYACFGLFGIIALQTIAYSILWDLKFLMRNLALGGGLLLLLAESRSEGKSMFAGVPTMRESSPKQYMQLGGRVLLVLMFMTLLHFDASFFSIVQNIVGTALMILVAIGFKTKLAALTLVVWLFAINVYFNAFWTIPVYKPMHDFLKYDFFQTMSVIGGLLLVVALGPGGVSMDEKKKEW

- fold increase in binding after digitonin permeabilisation of the microsomes [1]: > 5 fold
- Kd [2]: 200 to 300 nM
Substance: APV-GH (human growth hormone-1 starting with alanine-proline-valine) (from UniProt P01241 27-217) (natural protein)
